Measurements reported in patent US20150239954.

Molecular target: T1, E(Edans)-AAHisAAK-(Dabsyl)-NH2 (not fully specified)
T1 chain: AAHAAK

B1: aspergillopepsin II (An01g00530) (protein)
chain: EDYSSNWAGAVLIGDGYTKVTGEFTVPSVSAGSSSSSGYGGGYGYYKNKRQSEEYCASAWVGIDGDTCETAILQTGVDFCYEDGQTSYDAWYEWYPDYAYDFNDITISEGDTIKVTVEATSKSSGSATVENLTTGQSVTHTFSGNVEGDLCETNAEWIVEDFESGDSLVAFADFGSVTFTNAEATSDGSTVGPSDATVMDIEQDGTVLTETSVSGDSVTVTYV
Question: B1 was tested. Which “enzyme activity in relative fluorescent units (rfu) per minute per mg of protein; cleavage of FRET peptide substrates at pH 4” value did it give?
Answer: yields the highest rfu value for aspergillopepsin II
